From US20200223915A1 (OSAKA UNIVERSITY, published 2020) come the findings set out here.

Assay [1] has as its target T1, wild-type human Claudin 4 protein (human, UniProt O14493 1-209).
T1 construct: Expressed on cells by retrovirus; Wording leaves open whether the entry is the protein or the DNA; also called hCLDN4
T1 sequence: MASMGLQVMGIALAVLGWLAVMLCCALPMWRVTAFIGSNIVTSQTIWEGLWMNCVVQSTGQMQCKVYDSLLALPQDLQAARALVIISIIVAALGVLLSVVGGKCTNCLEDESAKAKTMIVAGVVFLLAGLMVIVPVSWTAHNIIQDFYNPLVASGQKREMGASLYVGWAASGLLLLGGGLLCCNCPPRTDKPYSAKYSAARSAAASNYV
Put plainly: FACS on Claudin-expressing cells. As to the method:
(§1) The cells were washed three times with 0.2% BSA-TBS, and then mixed with 100 μL of a secondary antibody solution (FITC conjugated goat anti-mouse IgG+IgM in 1% BSA-PBS (1:400)), followed by a reaction at 4° C. for 1 hour. The cells were washed with 0.2% BSA-TBS, and FACS analysis (FACS caliber, BD Bioscience) was performed.

Assay [2] has as its target T2, wild-type human Claudin 3 protein (human, UniProt O15551 1-220).
T2 construct: Expressed on cells by retrovirus; Wording leaves open whether the entry is the protein or the DNA; also called hCLDN3
T2 sequence: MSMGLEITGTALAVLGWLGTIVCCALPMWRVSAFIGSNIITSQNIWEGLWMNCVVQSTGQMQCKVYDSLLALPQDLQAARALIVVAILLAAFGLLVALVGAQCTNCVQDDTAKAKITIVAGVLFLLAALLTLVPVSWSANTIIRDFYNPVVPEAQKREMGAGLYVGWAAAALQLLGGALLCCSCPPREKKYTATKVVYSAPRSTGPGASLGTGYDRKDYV
Put plainly: FACS on Claudin-expressing cells. How it is done: as §1

Assay [3] deals with T3, wild-type mouse Claudin 5 protein (mouse, UniProt O54942 1-218).
T3 construct: also called mCLDN5
T3 sequence: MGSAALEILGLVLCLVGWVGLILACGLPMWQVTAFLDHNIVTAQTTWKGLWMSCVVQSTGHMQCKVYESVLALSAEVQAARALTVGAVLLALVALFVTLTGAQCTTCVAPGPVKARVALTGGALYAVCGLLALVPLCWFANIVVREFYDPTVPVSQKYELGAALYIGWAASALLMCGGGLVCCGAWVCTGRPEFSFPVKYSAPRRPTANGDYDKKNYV
Put plainly: FACS on Claudin-expressing cells. As to the method: as §1

Assay [4] has as its target T4, wild-type human Claudin 5 protein (human, UniProt O00501 1-218).
T4 construct: also called hCLDN5; CLDN 5
T4 sequence: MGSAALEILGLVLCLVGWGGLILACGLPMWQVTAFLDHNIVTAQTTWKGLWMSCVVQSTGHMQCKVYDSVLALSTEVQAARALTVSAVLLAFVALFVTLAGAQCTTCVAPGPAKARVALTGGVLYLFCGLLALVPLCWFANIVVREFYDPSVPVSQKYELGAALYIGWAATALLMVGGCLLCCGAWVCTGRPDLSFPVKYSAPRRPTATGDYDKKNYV
Put plainly: FACS on human Claudin 5-expressing HT-1080 cells; 50% saturation of the MFI binding curve. How it is done:
as §1

Assay [5] concerns the target T5, wild-type rat Claudin 5 protein (rat, UniProt Q9JKD6 1-218).
T5 sequence: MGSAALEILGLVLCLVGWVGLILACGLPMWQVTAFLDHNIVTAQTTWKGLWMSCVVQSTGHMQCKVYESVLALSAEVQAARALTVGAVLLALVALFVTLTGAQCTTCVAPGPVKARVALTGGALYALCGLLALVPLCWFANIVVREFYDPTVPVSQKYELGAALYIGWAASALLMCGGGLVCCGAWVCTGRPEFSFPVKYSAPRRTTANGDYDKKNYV
As to the kind of experiment: FACS on Claudin 5-expressing cells (species comparison). As to the method: as §1
FIG. 5 illustrates histograms with the horizontal axis representing the fluorescence signal, and the vertical axis representing the cell count. FIG. 6 illustrates a comparison of the amino acid. sequences of Claudin 5 protein of different species.

B1: antibody 2B1 (antibody, IgG2a, V domains shown)
VH: QVQLQQPGAELVKPGASVKLSCKASGYTFTTFWIHWVKQRPGRGLEWIGRIAPYSGGTTYNEKFKSKATLTVDRPSTTAYMQLISLTSEDSAVYYCARWDFTYGSNLDYWGQGTTLTVSS
VL: DIVMTQSQKFMSTSVGDRVSIPCKASQNVRTAVAWYQQKPGQSPKALIYLASNRHTGVPDRFTGSGSGTDFTLTISNVQSEDLADYFCLGHWDYPYTFGGGTKLEIKR
notes: also called antibody B
In the case of B1, the binding result in assay [1], in assay [2], in assay [3] and in assay [5] was “no binding (tested: 10 µg/mL)” in each case. Moreover, in assay [4], the affinity, expressed as Kd, was 6.9 nM.

B2: antibody 2B12 (antibody, IgG2a, V domains shown)
VH: QVQLQQSGAELARPGASVKLSCKASGYTFTRFGMSWVKQRTGQGLEWIGEIYPGSGDTYYSENFKGKATLTADKSSGTAYMELRSLTSEDSAVYFCARWGIYYGNPYAMDYWGQGTSVTVSS
VL: DIVMTQAAPSVPVTPGESVSISCRSSKSLLHSNGNTYLYWFLQRPGQSPQLLIYRMSNLASGVPDRFSGSGSGTAFTLRISRVEAEDVGVYYCLQHLEYPFTFGSGTKLEIKR
notes: also called antibody A
As to B2, the binding result in assay [1], in assay [2], in assay [3] and in assay [5] was “no binding (tested: 10 µg/mL)” each time. The molecule also yielded a Kd in assay [4] of 7.3 nM.

By Kd is commonly meant the concentration at which binding is half-saturated. A high value points to lower affinity.
